The text below walks through data of patent US20010052137.

The test system of data set [1] is T1, Myc-tagged C-term fragment of Xaxin (amino acid residues 429-713).
T1 sequence: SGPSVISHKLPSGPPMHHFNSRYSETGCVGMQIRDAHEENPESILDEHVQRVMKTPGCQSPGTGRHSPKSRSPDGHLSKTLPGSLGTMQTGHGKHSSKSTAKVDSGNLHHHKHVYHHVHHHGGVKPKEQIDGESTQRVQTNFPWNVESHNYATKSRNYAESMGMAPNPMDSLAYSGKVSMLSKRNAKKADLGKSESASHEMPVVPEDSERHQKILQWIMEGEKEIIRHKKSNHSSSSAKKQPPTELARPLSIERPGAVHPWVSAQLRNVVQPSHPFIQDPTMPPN

Data set [2] deals with T2, Myc-tagged GID-1 fragment of Xaxin (amino acid residues 277-545).
T2 sequence: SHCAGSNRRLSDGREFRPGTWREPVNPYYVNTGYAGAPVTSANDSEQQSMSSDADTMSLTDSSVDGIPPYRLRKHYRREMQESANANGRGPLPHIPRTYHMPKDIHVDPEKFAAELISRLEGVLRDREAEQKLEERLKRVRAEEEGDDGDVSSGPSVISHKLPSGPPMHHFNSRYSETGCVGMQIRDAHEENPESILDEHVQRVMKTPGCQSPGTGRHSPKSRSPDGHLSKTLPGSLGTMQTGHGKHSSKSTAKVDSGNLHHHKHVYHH

Data set [3] has as its system Myc-tagged deltaGID construct of Xaxin (amino acid residues 1-324 fused to residues 504-842).
Data set [4] relates to Myc-tagged deltaDIX construct of Xaxin (amino acid residues 1-778).
Data set [5] has as its system T3, Myc-tagged deltaRGS construct of Xaxin (amino acid residues 1-80 fused to residues 290-842).
T3 sequence: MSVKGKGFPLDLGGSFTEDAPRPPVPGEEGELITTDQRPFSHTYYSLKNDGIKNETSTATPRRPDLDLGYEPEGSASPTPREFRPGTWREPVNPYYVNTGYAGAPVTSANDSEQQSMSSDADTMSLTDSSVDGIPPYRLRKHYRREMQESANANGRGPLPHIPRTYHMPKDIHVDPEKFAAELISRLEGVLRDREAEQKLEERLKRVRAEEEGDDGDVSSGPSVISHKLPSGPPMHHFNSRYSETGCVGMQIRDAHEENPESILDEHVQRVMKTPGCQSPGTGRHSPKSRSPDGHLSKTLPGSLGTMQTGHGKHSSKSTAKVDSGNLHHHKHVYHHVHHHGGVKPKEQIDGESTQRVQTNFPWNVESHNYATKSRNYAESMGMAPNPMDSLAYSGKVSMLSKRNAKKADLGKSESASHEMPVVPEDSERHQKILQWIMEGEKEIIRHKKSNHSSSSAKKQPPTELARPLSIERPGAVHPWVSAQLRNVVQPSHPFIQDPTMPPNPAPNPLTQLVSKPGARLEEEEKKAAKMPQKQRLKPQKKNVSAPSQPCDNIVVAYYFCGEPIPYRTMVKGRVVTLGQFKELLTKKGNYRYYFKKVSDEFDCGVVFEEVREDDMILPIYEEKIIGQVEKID

In data set [6] the test system is Myc-tagged full length Xenopus axin (FL Xaxin, amino acid residues 1-842).
Data set [7] concerns Myc-tagged N-term fragment of Xaxin (amino acid residues 63-288).
Myc-tagged N-term fragment of Xaxin (amino acid residues 63-288), sequence (chain, as listed by the source): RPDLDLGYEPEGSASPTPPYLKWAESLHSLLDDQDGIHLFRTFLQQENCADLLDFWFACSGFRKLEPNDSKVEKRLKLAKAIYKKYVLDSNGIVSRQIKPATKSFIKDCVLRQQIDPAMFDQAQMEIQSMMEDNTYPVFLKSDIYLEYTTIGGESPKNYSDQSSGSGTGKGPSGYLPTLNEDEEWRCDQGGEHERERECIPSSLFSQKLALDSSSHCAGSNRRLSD

Regarding “GSK-3 beta (glycogen synthase kinase-3 beta) expressed in Xenopus oocytes”, the “GSK-3 beta-mediated tau phosphorylation in Xenopus oocytes (PHF-1 immunoblot)” value in data set [1] is on record as “had no effect on GSK-3 beta activity”; in data set [2] it was “virtually complete inhibition of GSK-3 beta-mediated tau phosphorylation”; in data set [6] it was “had no discernible effect on tau phosphorylation”; in data set [7], “had no effect on GSK-3 beta activity”. The “GSK-3 beta mediated tau phosphorylation in Xenopus oocytes” value in data set [2] is “bound GSK-3 beta and inhibited GSK-3 beta mediated tau phosphorylation”. For the same substance, the “GSK-3 beta activity in the tau-phosphorylation assay in Xenopus oocytes” value in data set [3] was “had no discernible effect on GSK-3 beta activity in the tau-phosphorylation assay”. Moreover, the “GSK-3 beta activity (tau phosphorylation assay in Xenopus oocytes)” value in data set [4] is “partially inhibited GSK-3 beta activity”. Also, in data set [5], the “tau protein phosphorylation mediated by GSK-3 beta in Xenopus oocytes” value is recorded as “inhibited tau protein phosphorylation mediated by GSK-3 beta in a dose-dependent manner”.
